In patent US20260167699A1 (Chugai, published 2026):

T1: FcγRIIb (human, UniProt P31994 43-217)
T1 construct: extracellular domain; also called 2b
T1 sequence: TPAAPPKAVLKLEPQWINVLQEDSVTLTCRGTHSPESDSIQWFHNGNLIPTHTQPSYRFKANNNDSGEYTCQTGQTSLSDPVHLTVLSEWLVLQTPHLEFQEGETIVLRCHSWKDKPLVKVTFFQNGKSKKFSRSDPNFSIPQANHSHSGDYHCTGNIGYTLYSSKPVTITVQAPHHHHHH

T2: FcγRIIa(H) (human, UniProt P12318 34-217)
T2 construct: extracellular domain; also called 2aH
T2 sequence: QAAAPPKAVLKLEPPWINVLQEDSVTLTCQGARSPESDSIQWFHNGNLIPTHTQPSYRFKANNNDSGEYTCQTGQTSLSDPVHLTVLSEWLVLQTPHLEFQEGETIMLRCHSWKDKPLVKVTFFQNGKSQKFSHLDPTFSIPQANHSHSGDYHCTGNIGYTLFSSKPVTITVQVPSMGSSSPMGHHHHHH

T3: FcγRIIa(R) (human, UniProt P12318 34-217)
T3 construct: extracellular domain; also called 2aR
T3 sequence: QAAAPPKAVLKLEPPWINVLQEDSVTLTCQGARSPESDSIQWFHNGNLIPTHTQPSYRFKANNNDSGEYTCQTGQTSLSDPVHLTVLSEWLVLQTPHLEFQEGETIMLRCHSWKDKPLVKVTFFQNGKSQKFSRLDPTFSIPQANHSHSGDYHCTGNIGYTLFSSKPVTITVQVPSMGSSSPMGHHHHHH

B1: GpH7-A5/GpH7-B3 variant Y300_11K/GpL16-k0 (antibody, human IgG1, kappa)
heavy 1: not shown
heavy 2: not shown
light: DIVMTQSPLSLPVTPGEPASISCQASESLVHSNRNTYLHWYLQKPGQSPQLLIYKVSNRFSGVPDRFSGSGSGTDFTLKISRVEAEDVGVYYCSQNTHVPPTFGQGTKVEIERTVAAPSVFIFPPSDEQLKSGTASVVCLLNNFYPREAKVQWKVDNALQSGNSQESVTEQDSKDSTYSLSSTLTLSKADYEKHKVYACEVTHQGLSSPVTKSFNRGEC
notes: He Ab: heterodimerized IgG1, one H chain mutated
B2: GpH7-A5/GpH7-B3 variant Y300_13S/GpL16-k0 (antibody, human IgG1, kappa)
heavy 1: not shown
heavy 2: not shown
light: DIVMTQSPLSLPVTPGEPASISCQASESLVHSNRNTYLHWYLQKPGQSPQLLIYKVSNRFSGVPDRFSGSGSGTDFTLKISRVEAEDVGVYYCSQNTHVPPTFGQGTKVEIERTVAAPSVFIFPPSDEQLKSGTASVVCLLNNFYPREAKVQWKVDNALQSGNSQESVTEQDSKDSTYSLSSTLTLSKADYEKHKVYACEVTHQGLSSPVTKSFNRGEC
notes: as for B1
B3: GpH7-A5/GpH7-B3 variant Y300_14T/GpL16-k0 (antibody, human IgG1, kappa)
heavy 1: not shown
heavy 2: not shown
light: DIVMTQSPLSLPVTPGEPASISCQASESLVHSNRNTYLHWYLQKPGQSPQLLIYKVSNRFSGVPDRFSGSGSGTDFTLKISRVEAEDVGVYYCSQNTHVPPTFGQGTKVEIERTVAAPSVFIFPPSDEQLKSGTASVVCLLNNFYPREAKVQWKVDNALQSGNSQESVTEQDSKDSTYSLSSTLTLSKADYEKHKVYACEVTHQGLSSPVTKSFNRGEC
notes: as for B1
B4: GpH7-A5/GpH7-B3 variant Y300_16H/GpL16-k0 (antibody, human IgG1, kappa)
heavy 1: not shown
heavy 2: not shown
light: DIVMTQSPLSLPVTPGEPASISCQASESLVHSNRNTYLHWYLQKPGQSPQLLIYKVSNRFSGVPDRFSGSGSGTDFTLKISRVEAEDVGVYYCSQNTHVPPTFGQGTKVEIERTVAAPSVFIFPPSDEQLKSGTASVVCLLNNFYPREAKVQWKVDNALQSGNSQESVTEQDSKDSTYSLSSTLTLSKADYEKHKVYACEVTHQGLSSPVTKSFNRGEC
notes: as for B1
B5: GpH7-A5/GpH7-B3 variant Y300_18N/GpL16-k0 (antibody, human IgG1, kappa)
heavy 1: not shown
heavy 2: not shown
light: DIVMTQSPLSLPVTPGEPASISCQASESLVHSNRNTYLHWYLQKPGQSPQLLIYKVSNRFSGVPDRFSGSGSGTDFTLKISRVEAEDVGVYYCSQNTHVPPTFGQGTKVEIERTVAAPSVFIFPPSDEQLKSGTASVVCLLNNFYPREAKVQWKVDNALQSGNSQESVTEQDSKDSTYSLSSTLTLSKADYEKHKVYACEVTHQGLSSPVTKSFNRGEC
notes: as for B1
B6: GpH7-A5/GpH7-B3 variant Y300_19Q/GpL16-k0 (antibody, human IgG1, kappa)
heavy 1: not shown
heavy 2: not shown
light: DIVMTQSPLSLPVTPGEPASISCQASESLVHSNRNTYLHWYLQKPGQSPQLLIYKVSNRFSGVPDRFSGSGSGTDFTLKISRVEAEDVGVYYCSQNTHVPPTFGQGTKVEIERTVAAPSVFIFPPSDEQLKSGTASVVCLLNNFYPREAKVQWKVDNALQSGNSQESVTEQDSKDSTYSLSSTLTLSKADYEKHKVYACEVTHQGLSSPVTKSFNRGEC
notes: as for B1
B7: GpH7-A5/GpH7-B3 variant Y300_20W/GpL16-k0 (antibody, human IgG1, kappa)
heavy 1: not shown
heavy 2: not shown
light: DIVMTQSPLSLPVTPGEPASISCQASESLVHSNRNTYLHWYLQKPGQSPQLLIYKVSNRFSGVPDRFSGSGSGTDFTLKISRVEAEDVGVYYCSQNTHVPPTFGQGTKVEIERTVAAPSVFIFPPSDEQLKSGTASVVCLLNNFYPREAKVQWKVDNALQSGNSQESVTEQDSKDSTYSLSSTLTLSKADYEKHKVYACEVTHQGLSSPVTKSFNRGEC
notes: as for B1

Columns and labels:
Test in all cases: SPR, relative to GpH7-A5/GpH7-B3/GpL16-k0 =100
FcγRIIb = molecular target: T1, FcγRIIb
FcγRIa = molecular target: T4, FcγRIa (human, UniProt P12314 16-292)
T4 construct: extracellular domain; also called 1a

FcγRIIa(H) = molecular target: T2, FcγRIIa(H)
FcγRIIa(R) = molecular target: T3, FcγRIIa(R)

T4 sequence (P12314 other isoform, or with tags, fused parts or gaps): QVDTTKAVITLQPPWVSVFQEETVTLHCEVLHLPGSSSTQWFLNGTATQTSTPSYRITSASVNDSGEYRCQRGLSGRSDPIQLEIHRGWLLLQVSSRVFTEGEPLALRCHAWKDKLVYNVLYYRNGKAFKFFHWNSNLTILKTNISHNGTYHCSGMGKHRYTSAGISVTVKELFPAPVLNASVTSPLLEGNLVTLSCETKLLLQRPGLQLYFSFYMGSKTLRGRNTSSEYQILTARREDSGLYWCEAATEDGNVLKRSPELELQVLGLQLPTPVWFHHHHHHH

He/Con 2b (FcγRIIb) | He/Con 1a (FcγRIa) | He/Con 2aH (FcγRIIa(H)) | He/Con 2aR (FcγRIIa(R)) | Binder
67.4% | 101% | 74.2% | 73.1% | B1
70.4% | 105% | 97.8% | 72.4% | B2
72.7% | 105% | 104% | 78.6% | B3
114% | 105% | 105% | 103% | B4
92.7% | 101% | 101% | 96.2% | B5
142% | 106% | 107% | 119% | B6
110% | 106% | 103% | 104% | B7
